Test results reported in the supplement of paper PMC12764529.
± gives the half width of the 95% confidence interval.

Experiments:
[1] = folding stability dG unfold (combined trypsin and chymotrypsin); higher = more stable
Summary of the method: (§1)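 Digests were run with trypsin and chymotrypsin at 11 concentrations in threefold dilutions, plus a no-protease condition, on designed mini-proteins in a PA-tagged cDNA display construct. The mini-proteins were under 80 residues, had no cysteine, and were kept only when AlphaFold2 dimer inter-PAE was above 15. After sequencing, Bayesian fitting of the counts gave K50, from which unfolding free energy was derived against a sequence-predicted unfolded-state K50 and a shared folded-state K50, per protease or combined.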

[2] = folding stability dG unfold from chymotrypsin proteolysis; higher = more stable
Summary of the method: as §1

[3] = folding stability dG unfold from trypsin proteolysis; higher = more stable
Summary of the method: as §1

Sequence	folding stability dG unfold [1] [kcal/mol]	folding stability dG unfold [2] [kcal/mol]	folding stability dG unfold [3] [kcal/mol]
SAGGMTVSVTADGSSYTATVKLPDGTTLTVPFTSLEELATQVREEYEKAFPDVPLERLVLEDISPTAPSAGG [r13_887_JUSTAS]	2.93 ± 0.036	3.344 ± 0.021	1.77 ± 0.031
SAGGSAGGMVIHEIEVESPDPEKAEEEAKARAEEIRKALEEEEGGIPGEVKFVPTPEEDPLLLLSAGGSAGG [r6_23_JUSTAS]	1.43 ± 0.13	0.834 ± 0.075	1.99 ± 0.13
SAGGSASDVVPIDKKITITLPGGEKYEVTEMTVLPDGTVKMKIIKKSPNGNPTEEEITLSPEELVDLSAGGS [r16_498_JUSTAS]	2.47 ± 0.058	2.594 ± 0.021	2.26 ± 0.083
SAGGAPVTTFSLTLENPETGLNWTSTSATYDPATGTLTLNLKRPQSGESLTLTTPVTVVSPEEPELASAGGS [r8_193_JUSTAS]	0.813 ± 0.11	0.819 ± 0.084	0.699 ± 0.052
SAGGSAGIKAVLNLGDKPVLVLIEPLPDGSFPVIAIFADDGSKVEKVIPASDIGELLSLDPDKLTFSAGGSA [r15_629_TrMRF]	0.6 ± 0.18	0.0558 ± 0.26	0.859 ± 0.035
SAGGSAGGSAGGMYVAVVTRPDGSRLVVETEPGEEIELFTEDGRPLGITAVAPVDEEAFSAGGSAGGSAGGS [r10_422_TrMRF]	0.227 ± 0.09	-0.334 ± 0.18	0.444 ± 0.036
SAGGFEEKVKAGEEVVDVVAPITLPDGTEAVVTRVEPVDDGLLVTLRPPWTGEEVELPLPASEIPKLPSAGG [r13_340_JUSTAS]	1.11 ± 0.077	1.21 ± 0.056	1.1 ± 0.057
SAGGSAGGWREIKIYVPPGMPLEEIKDLIKEFFPGYKVEIDEIEREDNYVKATIRIQPLPPGDFSAGGSAGG [r6_623_TrROS]	2.96 ± 0.071	2.81 ± 0.04	3.08 ± 0.092
SAGGSAGGSAGGSLEAIRKAIEEAQKNGHTVPISVRHPNGKDFTFEIEIQVVKPPPDEKSAGGSAGGSAGGS [r10_573_TrROS]	1.46 ± 0.13	1.47 ± 0.066	1.28 ± 0.043
SAGGSAGGSWVRDADGKPIPFKIDSVETKEENNPNGNRYYEIEARFPDNGKEFKATIPADDIKSAGGSAGGS [r12_823_TrROS]	0.248 ± 0.11	0.526 ± 0.2	-0.551 ± 0.26
SAGGMRPMVVTVRYPDGSVQTLVADYDPDTDVIRFPFPSDGTERDIPAGEWREDPDYQVLSETPLSLESAGG [r13_994_JUSTAS]	0.967 ± 0.052	0.0211 ± 0.11	1.58 ± 0.045
SAGGSAGGSMVLNFEDTKPGVSPEEAAARVAAKIRAEHDVAVLGVEVETSPTGGYHITITVDPSAGGSAGGS [r12_781_JUSTAS]	0.391 ± 0.062	0.272 ± 0.08	0.325 ± 0.059
SAGGSAMLKVTERTVEVEVFDEEGNPIGWRERKIVVEDPLSPEPRPPPPPVDPVLAAETLGADVLESAGGSA [r15_572_JUSTAS]	0.393 ± 0.14	0.543 ± 0.21	-0.0577 ± 0.14
SAGGKYVIIMFPLPPNLEVEIEYPGVPVHRTPNGSLMFQIPPNEPIRIKIKNPNGEEEELPINIFPLSAGGS [r8_72_TrROS]	2.2 ± 0.2	2.33 ± 0.1	1.77 ± 0.1
SAPIKIEIDVHQPPPGDYMIMVRIRPPGDGKEFPRMFPFPPDDAEKILENLLSQFPGYEIDDIEPMRYPSAG [r14_969_TrROS]	1.29 ± 0.16	1.08 ± 0.15	1.26 ± 0.049
SAGGSAGGSAGGKPGEKKRYRFPAPKFELVSKVKVRVKVLNEDTNELYEKEVEVFVLKLTSAGGSAGGSAGG [r7_64_TrROS_Hall]	2.14 ± 0.21	2.77 ± 0.16	1.12 ± 0.045
SAGGMIKIEVEKKDDKLIIRIEVDGKKYEIEIPKDMTLEEALKKALEELKEKFPGKKIKIKKVEIFKPSAGG [r13_884_TrROS_Hall]	2.36 ± 0.28	2.21 ± 0.088	3.22 ± 0.21
SAGGSAGGSAEELVKYLAKEHGHPPGKEVTIPFDNWMIKIRYNNDGVPVGVEIKPMPPDDMSAGGSAGGSAG [r3_468_TrROS]	0.593 ± 0.098	0.288 ± 0.12	0.717 ± 0.025
MNLSDPVSVAKLKKALEEIKKAIEELKKKGKKIEILAIELNDDSIKITPVTKSEEYIKKKKEEGIEIILLLS [r1_134_JUSTAS]	1.38 ± 0.2	0.677 ± 0.37	1.52 ± 0.041
SAGGSAGGTAEQIREIVEQLFRKRGMEPKKIEIKRVERNGDKVTIEVEWRWDNGRKRPRNIQIPSAGGSAGG [r6_841_TrROS]	1.18 ± 0.17	1.66 ± 0.12	0.722 ± 0.17
SAGGSAGGSAGGSMKEVTITLTDPETGKVSTLVLKLSPEEIEKAAEELAKSSGKKVTIRSAGGSAGGSAGGS [r4_301_JUSTAS]	1.78 ± 0.13	1.99 ± 0.066	1.04 ± 0.068
